# B1: SPSB1 (parent)
# chain: DMRDPTYRPLKQELQGLDYCKPTR
# Variants of: B1
# Assay: protein stability index of a GFP-peptide fusion (GPS, HEK-293T) (PSI 1-6); higher = more stable
# Conditions: c terminus: a fixed tail appended
# 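Further: lentivirally expressed fusions sorted by FACS into six bins by GFP to DsRed ratio, PSI derived from sequencing read proportions per bin multiplied by bin number.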
row,Variant,protein stability index
1,DMRDPTYRPLKQELQGLDYYKPTR [C20Y],3.58
2,DMRDPTYRPLKQELQGLDYVKPTR [C20V],1.78
3,DMRDPTYRPLKQEQQGLDYCKPTR [L14Q],4.29
4,DMRDPTYRPLKQENQGLDYCKPTR [L14N],3.95
5,DMRDPTYRPLKQEGQGLDYCKPTR [L14G],4.04
6,DMRDPTYRPLKQEPQGLDYCKPTR [L14P],3.89
7,DMRDPTYRPLKQEWQGLDYCKPTR [L14W],2.96
8,DMRDPTYRPLKQEKQGLDYCKPTR [L14K],4.5
9,DMRDPTYRPLKQEIQGLDYCKPTR [L14I],3.35
10,DMRDPTYRPLKQEAQGLDYCKPTR [L14A],4.04
11,DMRDPTYRPLKQEVQGLDYCKPTR [L14V],4.05
12,DMRDPTYRPLKQECQGLDYCKPTR [L14C],3.71
13,DMRFPTYRPLKQELQGLDYCKPTR [D4F],3.47
14,DMRRPTYRPLKQELQGLDYCKPTR [D4R],3.53
15,DMRSPTYRPLKQELQGLDYCKPTR [D4S],2.61
16,DMRYPTYRPLKQELQGLDYCKPTR [D4Y],2.83
17,DMRQPTYRPLKQELQGLDYCKPTR [D4Q],3.6
18,DMRHPTYRPLKQELQGLDYCKPTR [D4H],2.7
19,DMRDPTTRPLKQELQGLDYCKPTR [Y7T],3.68
20,DMRDPTFRPLKQELQGLDYCKPTR [Y7F],2.98
21,DMRDPTLRPLKQELQGLDYCKPTR [Y7L],3.25
22,DMRDPTMRPLKQELQGLDYCKPTR [Y7M],2.64
23,DMRDPTVRPLKQELQGLDYCKPTR [Y7V],3.5
24,DMRDPTGRPLKQELQGLDYCKPTR [Y7G],2.64

row,Variant,protein stability index
1,DMRDPTERPLKQELQGLDYCKPTR [Y7E],3.86
2,DMRDPTSRPLKQELQGLDYCKPTR [Y7S],2.93
3,DMIDPTYRPLKQELQGLDYCKPTR [R3I],2.96
4,DMYDPTYRPLKQELQGLDYCKPTR [R3Y],2.8
5,DMNDPTYRPLKQELQGLDYCKPTR [R3N],3.19
6,DMSDPTYRPLKQELQGLDYCKPTR [R3S],3.89
7,DMCDPTYRPLKQELQGLDYCKPTR [R3C],2.9
8,DMDDPTYRPLKQELQGLDYCKPTR [R3D],2.59
9,DMPDPTYRPLKQELQGLDYCKPTR [R3P],3.36
10,DMGDPTYRPLKQELQGLDYCKPTR [R3G],3.21
11,DLRDPTYRPLKQELQGLDYCKPTR [M2L],3.01
12,DRRDPTYRPLKQELQGLDYCKPTR [M2R],3.71
13,DKRDPTYRPLKQELQGLDYCKPTR [M2K],3.13
14,DPRDPTYRPLKQELQGLDYCKPTR [M2P],4.62
15,DTRDPTYRPLKQELQGLDYCKPTR [M2T],2.64
16,DSRDPTYRPLKQELQGLDYCKPTR [M2S],3.77
17,DIRDPTYRPLKQELQGLDYCKPTR [M2I],3.19
18,DNRDPTYRPLKQELQGLDYCKPTR [M2N],3.38
19,DMRDPTYRYLKQELQGLDYCKPTR [P9Y],2.67
20,DMRDPTYRFLKQELQGLDYCKPTR [P9F],3.26
21,DMRDPTYRRLKQELQGLDYCKPTR [P9R],2.25
22,DMRDPTYRMLKQELQGLDYCKPTR [P9M],2.6
23,DMRDPTYRPLVQELQGLDYCKPTR [K11V],3.45
24,DMRDPTYRPLWQELQGLDYCKPTR [K11W],2.5

row,Variant,protein stability index
1,DMRDPTYRPLHQELQGLDYCKPTR [K11H],3.32
2,DMRDPTYRPLAQELQGLDYCKPTR [K11A],3.68
3,DMRDPTYRPLDQELQGLDYCKPTR [K11D],3.85
4,DMRDPTYRPLCQELQGLDYCKPTR [K11C],2.48
5,DMRDPTYRPLIQELQGLDYCKPTR [K11I],2.88
6,DMRDPTYRPLTQELQGLDYCKPTR [K11T],3.17
7,DMRDPTYRPLEQELQGLDYCKPTR [K11E],4.03
8,DMRDPTYRPLNQELQGLDYCKPTR [K11N],4.04
9,DMRDPTYRPLSQELQGLDYCKPTR [K11S],3.76
10,DMRDPTYRPLMQELQGLDYCKPTR [K11M],3.71
11,DMRDATYRPLKQELQGLDYCKPTR [P5A],3.28
12,DMRDFTYRPLKQELQGLDYCKPTR [P5F],3
13,DMRDITYRPLKQELQGLDYCKPTR [P5I],2.63
14,DMRDSTYRPLKQELQGLDYCKPTR [P5S],3.61
15,DMRDHTYRPLKQELQGLDYCKPTR [P5H],3.88
16,DMRDVTYRPLKQELQGLDYCKPTR [P5V],3.01
17,DMRDTTYRPLKQELQGLDYCKPTR [P5T],3.17
18,DMRDCTYRPLKQELQGLDYCKPTR [P5C],3.21
19,DMRDQTYRPLKQELQGLDYCKPTR [P5Q],3.55
20,DMRDETYRPLKQELQGLDYCKPTR [P5E],3.65
21,DMRDMTYRPLKQELQGLDYCKPTR [P5M],3.57
22,DMRDPTYRPLKWELQGLDYCKPTR [Q12W],2.35
23,DMRDPTYRPLKNELQGLDYCKPTR [Q12N],3.17
24,DMRDPTYRPLKMELQGLDYCKPTR [Q12M],2.23

row,Variant,protein stability index
1,DMRDPTYRPLKYELQGLDYCKPTR [Q12Y],3.12
2,DMRDPTYRPLKFELQGLDYCKPTR [Q12F],2.67
3,DMRDPTYRPLKDELQGLDYCKPTR [Q12D],3.45
4,DMRDPTYRPLKHELQGLDYCKPTR [Q12H],3.46
5,DMRDPTYRPLKVELQGLDYCKPTR [Q12V],2.59
6,DMRDPTYRPLKRELQGLDYCKPTR [Q12R],3.18
7,DMRDPTYRPLKQELQGLDYCKPSR [T23S],2.92
8,DMRDPTYRPLKQELQGLDYCKPLR [T23L],2.99
9,DMRDPTYRPLKQELQGLDYCKPIR [T23I],2.52
10,DMRDPTYRPLKQELQGLDYCKPMR [T23M],2.87
11,DMRDPTYRPLKQELQGLDYCKPKR [T23K],3.9
12,DMRDPTYRPLKQELQGLDYCKPYR [T23Y],2.5
13,DMRDPTYRPLKQELQGLDYCKPRR [T23R],4.3
14,DMRDPTYRPLKQELQGLDYCKPER [T23E],3.92
15,DMRDPTYRPLKQELQGLDYCKPAR [T23A],3.18
16,DMRDPTYRPLKQELQGLDYCKPGR [T23G],4.26
17,DMRDPTYRPLKQELFGLDYCKPTR [Q15F],2.6
18,DMRDPTYRPLKQELLGLDYCKPTR [Q15L],2.81
19,DMRDPTYRPLKQELGGLDYCKPTR [Q15G],2.25
20,DMRDPTYRPLKQELVGLDYCKPTR [Q15V],2.73
21,DMRDPTYRPLKQELSGLDYCKPTR [Q15S],3.59
22,DMRDPTYRPLKQELHGLDYCKPTR [Q15H],2.7
